The text below walks through data of patent publication US20050074814A1, “Relaxin3-GPCR135 complexes and their production and use” (priority 2003, published 2005).

For one experiment, the system named is human GPCR135. Description: Intracellular cAMP accumulation assay in CHO-K1 cells stably expressing human GPCR135. It is filed as cell-based. The conditions noted are these: in the presence of GPCR135. The protocol: (§1) CHO-K1 cells stably expressing human GPCR135 were established by transfection of GPCR135 expressing plasmid into CHO-K1 (ATCC# CCL-61) cells and culturing the transfected cells under selection of G418 (400 mg/L). The receptor expressing cells were seeded in 96-well plates at a cell density of 30,000 cells/well. Twenty-four hours later, cell culture medium was replaced with DMEM-F12 plus 2 mM IBMX (sigma). A different test compound for cAMP stimulation was added to each well. The reactions were incubated at room temperature for 20 min. Twenty micro-liters of 0.5 N HCl was added to each well to stop the reaction and extract the accumulated cAMP. The cAMP concentration was measured using a cAMP ELISA kit (NEN).

Another experiment relates to CHO-K1 cells. Put plainly: Intracellular cAMP accumulation assay in un-transfected CHO-K1 control cells. It is filed as cell-based. The protocol: CHO-K1 cells stably expressing human GPCR135 (GPCR135) and un-transfected CHO-K1 cells (Control) were used for cAMP accumulation assays. Cells were treated with different stimulants as indicated. cAMP accumulated in the cells was extracted by HCl and the concentration of cAMP was measured by a ELISA kit (NEN) using ^125I-labeled cAMP and Flash plates.
as §1

Experiment [1] addresses T1, GPCR135 (Homo sapiens, UniProt Q9NSD7).
T1 sequence (Q9NSD7 1-469): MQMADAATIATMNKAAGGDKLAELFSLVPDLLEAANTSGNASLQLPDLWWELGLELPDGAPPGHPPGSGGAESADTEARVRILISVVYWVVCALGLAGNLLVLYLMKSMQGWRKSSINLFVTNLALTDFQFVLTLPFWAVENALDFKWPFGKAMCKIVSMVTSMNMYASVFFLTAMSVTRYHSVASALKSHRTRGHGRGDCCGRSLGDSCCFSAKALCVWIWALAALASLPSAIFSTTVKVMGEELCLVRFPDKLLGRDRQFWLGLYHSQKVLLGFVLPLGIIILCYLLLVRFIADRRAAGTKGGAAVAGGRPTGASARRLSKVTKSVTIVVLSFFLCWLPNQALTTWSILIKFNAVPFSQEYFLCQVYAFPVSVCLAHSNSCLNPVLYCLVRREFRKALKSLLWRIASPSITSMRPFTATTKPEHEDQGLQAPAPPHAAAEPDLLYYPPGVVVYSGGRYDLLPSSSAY
Description: Radioligand binding assay on COS-7 cells transfected with GPCR135. Set-up: primers complementary to the putative translation start and stop sites of the GPCR135 open reading frame; expressed in transfected cells. The conditions noted are these: human GPCR135 in COS-7 cells; presence or absence of 1 μM unlabeled competitor. The protocol:
(§2) COS-7 cells in 6-well tissue culture plates were transfected by GPCR135 expressing plasmid using LipofectAmine. Two days after transfection, cells were washed with binding buffer: DMEM plus 50 mM Hepes, pH 7.2 and 1% BSA. ^125I-label human relaxin3 was added to each well in 1 ml of binding buffer at presence or absence 1 μM of unlabeled relaxin as competitor. The binding assays were carried out at room temperature for one hour and the unbound ligand was washed away by ice-cold PBS. The bound 125I-relaxin3 was counted in a gamma counter.

For the next experiment, the system named is rat GPCR135. Described as above. The conditions noted are these: rat GPCR135 in COS-7 cells; presence or absence of 1 μM unlabeled competitor. The protocol: as §2
In the next experiment the target is T2, mouse GPCR135 (Mus musculus, UniProt Q8BGE9).
T2 construct: Mouse GPCR135 coding region was PCR amplified from mouse genomic DNA; expressed in transfected cells; host or cells: COS-7 (transient)
T2 sequence (Q8BGE9 1-472): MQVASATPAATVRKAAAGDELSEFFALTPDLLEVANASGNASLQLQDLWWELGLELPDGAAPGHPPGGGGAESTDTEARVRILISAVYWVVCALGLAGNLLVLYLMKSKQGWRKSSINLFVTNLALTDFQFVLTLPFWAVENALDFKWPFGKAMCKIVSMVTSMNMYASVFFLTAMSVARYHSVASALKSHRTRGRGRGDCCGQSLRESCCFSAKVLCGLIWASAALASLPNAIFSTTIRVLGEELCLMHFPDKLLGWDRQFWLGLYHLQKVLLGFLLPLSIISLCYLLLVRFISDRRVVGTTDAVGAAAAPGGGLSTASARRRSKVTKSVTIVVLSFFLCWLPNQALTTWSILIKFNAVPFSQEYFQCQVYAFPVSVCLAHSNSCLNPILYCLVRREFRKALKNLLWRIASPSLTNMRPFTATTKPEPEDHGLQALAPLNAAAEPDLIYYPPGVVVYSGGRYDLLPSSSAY
The experiment is described as above. The conditions noted are these: mouse GPCR135 in COS-7 cells; presence or absence of 1 μM unlabeled competitor. The protocol:
as §2

In experiment [2] the target is T1, GPCR135. Also noted: host or cells: Cos-1 (transient). Particulars: transient expression of GPCR135 in Cos-1 cells; cited from earlier work.
In experiment [3] the target is T1, GPCR135. Description: Intracellular cAMP accumulation assay in CHO-K1 cells stably expressing human GPCR135. The conditions noted are these: CHO-K1 cells expressing human GPCR135. Set-up: primers complementary to the putative translation start and stop sites of the GPCR135 open reading frame; expressed in transfected cells; host or cells: CHO-K1 (transient, pCIneo vector), membranes. It is filed as cell-based. The protocol: as §1

The target in a further experiment is T3, LGR7 (Homo sapiens, UniProt Q9HBX9).
T3 sequence (Q9HBX9 1-757): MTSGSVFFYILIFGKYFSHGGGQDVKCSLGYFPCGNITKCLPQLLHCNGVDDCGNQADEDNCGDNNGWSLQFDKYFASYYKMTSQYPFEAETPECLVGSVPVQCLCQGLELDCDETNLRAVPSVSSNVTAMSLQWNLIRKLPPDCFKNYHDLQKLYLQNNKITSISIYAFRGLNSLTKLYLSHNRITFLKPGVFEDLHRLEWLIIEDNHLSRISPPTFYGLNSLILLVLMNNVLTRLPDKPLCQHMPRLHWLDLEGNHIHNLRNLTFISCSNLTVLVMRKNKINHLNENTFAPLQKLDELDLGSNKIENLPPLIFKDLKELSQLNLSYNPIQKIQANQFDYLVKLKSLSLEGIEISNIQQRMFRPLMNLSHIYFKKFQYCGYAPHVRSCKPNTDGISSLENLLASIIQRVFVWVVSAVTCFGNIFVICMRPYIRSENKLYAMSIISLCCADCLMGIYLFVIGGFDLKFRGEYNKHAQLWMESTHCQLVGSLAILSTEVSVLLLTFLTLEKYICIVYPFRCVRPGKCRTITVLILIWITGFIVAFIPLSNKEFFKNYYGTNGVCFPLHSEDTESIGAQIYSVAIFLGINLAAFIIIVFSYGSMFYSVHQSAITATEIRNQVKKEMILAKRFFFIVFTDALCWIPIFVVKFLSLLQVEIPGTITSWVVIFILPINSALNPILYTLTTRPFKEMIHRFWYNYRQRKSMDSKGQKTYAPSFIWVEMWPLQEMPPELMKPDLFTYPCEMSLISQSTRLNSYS
The conditions noted are these: cited from earlier work.

For experiment [4], the target named is T1, GPCR135. Put plainly: GTPγS binding assay with GPCR135 expressing cell membranes. It is filed as biochemical. Also noted: primers complementary to the putative translation start and stop sites of the GPCR135 open reading frame; expressed in transfected cells; host or cells: CHO-K1 (transient, pCIneo vector), membranes. Particulars: isolated membranes of CHO-K1 cells transfected with GPCR135; 35S-GTPγS. The protocol:
Frozen rat brains (5 g) were homogenized at −30° C. in 40 ml ethanol/HCl (ethanol to 0.8M HCl ratio at 3:1). The homogenate was extracted at 4° C. for 2 hr and then centrifuged at 4° C. at 20,000 g for 30 min. The supernatant was loaded onto a 2 ml SP-Sephadex C-25 column (Amersham), washed with 1 M acetic acid and eluted with 2 M pyridine and 1 M acetic acid. The eluted fraction was loaded onto a 6 ml C-18 BondElut column, washed with 0.1% TFA and eluted with 60% acetonitrile and 0.1% TFA. The eluted peptides were lyophilized, reconstituted in water, and tested for GPCR135 ligand activity using GTPγS binding assay as described in Example 5.
GPCR135 expression vector was transfected into CHO-K1 cells using Lipofectamine (Invitrogen). Two days after transfection, the transfected cells were harvested and homogenized in GTPγS binding buffer: 50 mM Tris-HCl, pH 7.4, 10 mM MgCl2, 1 mM EDTA pH 8.0, and 100 mM NaCl. Protease inhibitors were added to the buffer at concentrations of 1 mM PMSF, 10 μg/ml of pepstain A, 10 μg/ml of leupeptin. Cell membranes were isolated by centrifugation at 20,000 g for 30 min. […] Microscint-40 (Packard) was added to each well and the plate was counted on a top counter (TopCount NTX, Packard).
(GTPγS resists hydrolysis and so accumulates on activated G proteins.)

For experiment [5], the target named is T1, GPCR135. Description: Ca2+ mobilization assay (FLIPR) in HEK293 cells co-expressing GPCR135 and Gqi5. It is filed as cell-based. Also noted: primers complementary to the putative translation start and stop sites of the GPCR135 open reading frame; expressed in transfected cells. The protocol: Using LipofectAmine, human embryonic kidney (HEK) 293 cells were co-transfected with a plasmid expressing GPCR135 receptor and a plasmid expressing Gqi5, a mutant G-protein that translates the activation of GPCR135 into an increased intracellular Ca 2+, or increased Ca^2+ mobilization (Conklin et al., 1993, Nature 363: 274-276). Two days after transfection, cells were detached with PBS plus 10 mM EDTA, pH 8.0. The detached cells were washed with DMEM-F12 medium (without phenol red, Invitrogen) and seeded in black poly-D lysine coated 96-well plates at a cell density of 50,000 cell/well. Calcium dye, Fluo-3 (AM) (TEFLABS, Austin, Tex.) was loaded into the cells and ligand stimulated calcium mobilization was monitored using FLIPR (Molecular Device).
HEK293 cells, untransfected (293 Control) or transfected by Gqi5 (293/Gqi5) alone or human GPCR135 (GPCR135) alone, or co-transfected by human GPCR135 and Gqi5 (GPCR135/Gqi5), were used for Ca^2+ mobilization assays under stimulation of relaxin3 as the ligand. Ligand-stimulated intracellular mobilization was monitored using FLIPR.
On the technique in general: Calcium flux is commonly read through the fluorescence of an indicator in the cells.

Chain of rat GPCR135 (as listed by the source): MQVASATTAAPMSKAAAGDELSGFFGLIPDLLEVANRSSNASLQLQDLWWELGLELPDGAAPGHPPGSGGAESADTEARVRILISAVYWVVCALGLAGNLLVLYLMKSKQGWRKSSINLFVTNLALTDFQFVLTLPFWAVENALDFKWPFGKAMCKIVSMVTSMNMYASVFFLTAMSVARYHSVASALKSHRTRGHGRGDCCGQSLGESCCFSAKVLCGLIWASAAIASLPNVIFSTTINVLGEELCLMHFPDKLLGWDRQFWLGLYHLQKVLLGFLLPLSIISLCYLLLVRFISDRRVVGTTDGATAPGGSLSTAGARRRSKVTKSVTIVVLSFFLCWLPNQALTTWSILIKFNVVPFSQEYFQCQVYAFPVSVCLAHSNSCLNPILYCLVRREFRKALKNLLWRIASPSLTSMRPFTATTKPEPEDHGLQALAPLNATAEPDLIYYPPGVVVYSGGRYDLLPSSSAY

Take `C=C[C@@]1(C)CC(=O)[C@]2(O)[C@@]3(C)[C@@H](O)CCC(C)(C)[C@@H]3[C@H](O)[C@H](OC(C)=O)[C@@]2(C)O1` [forskalin]: the “intracellular concentration of cAMP” value in the experiment on human GPCR135 and with CHO-K1 cells (in the absence of GPCR135) was “increases the intracellular concentration of cAMP” throughout.

Turning to “^125I-relaxin 3: 125I-labeled human relaxin3 used as radioligand”, the “specific binding to GPCR135” value with GPCR135 [1], in the experiment with rat GPCR135 and in the experiment with mouse GPCR135 was “specifically binds” throughout.

Regarding “angiotensin II (DRVYIHPF; Angiotensin-2; UniProt P01019 25-32, looked up)”, the “binding sites on GPCR135 expressing cells” value in the experiment with GPCR135 [2] is “did not produce any binding sites”.

“relaxin3: recombinant human relaxin3, mature two-chain (A and B) peptide linked by disulfide bridges, purified from transfected COS-7 medium”: the “forskalin-stimulated cAMP accumulation” value was “inhibits forskalin-stimulated cAMP accumulation” in the experiment with GPCR135 [3] and “not in control cells” in the experiment with CHO-K1 cells (control cells where GPCR135 is absent). Further, the “activation of LGR7” value with LGR7 is recorded as “activates LGR7”. In addition, in the experiment with GPCR135 [4], the “stimulation of GTPγS binding in GPCR135 expressing cell membrane” value was “potently stimulated GTPγS binding”. Also, in the experiment with GPCR135 [5], the “ligand-stimulated intracellular Ca2+ mobilization” value is given as “stimulated Ca^2+ mobilization”.
